Patent US20050036993A1, “Immune activation by double-stranded polynucleotides” (priority 1998, published 2005)

Experiments:
NF-PB = test: Gel shift analysis with NF-PB consensus ODN, nuclear protein of FRTL-5 cells; assay type: cell-based, rat; details: nuclear extracts; dsDNA within 3 hours
Method: Nuclear Extracts—A previously employed method to prepare nuclear extracts (S. Ikuyama et al., Mol. Endocrinol. 6:1701-1715 (1992)) was modified to prepare extracts from small numbers of cells. Cells were washed, scraped in 1 ml PBS, pelleted in a microfuge, and resuspended in five volumes of Buffer A (10 mM HEPES-KOH, pH 7.9, 10 mM KCl, 1.5 mM MgCl2, 0.1 mM EDTA) containing 0.3 M sucrose and 2% Tween 40. To release nuclei, they were frozen and thawed once, then repetitively pipetted, 50 to 100 times, using a micropipet with a yellow tip (200 T1 capacity). Samples were overlayed on 1 ml of 1.5 M sucrose in Buffer A and microfuged for 10 min at 4EC. Pelleted nuclei were washed with 1 ml Buffer A, centrifuged for 30 sec, then resuspended in 50 T1 of Buffer B (20 mM HEPES-KOH, pH 7.9, 420 mM NaCl, 1.5 mM MgCl2, 0.2 mM EDTA, 25% glycerol). Samples were placed on ice for 20 min with occasional vortexing and centrifuged for 20 min at 4EC. The supernatant fraction containing nuclear protein was aliquoted and stored at −70 C. […]
Electrophoretic Mobility Shift Analysis (EMSA)—Oligonucleotides were labeled with [K-^32P]ATP using T4 polynucleotide kinase, then purified on 8% native polyacrylamide gels (S. Ikuyama et al., Mol. Endocrinol. 6:1701-1715 (1992); H. Shimura, et al., Mol. Endocrinol. 8:1049-69 (1994)). […] Mixtures were analyzed on 5% native polyacrylamide gels and autoradiographed. […]

[1] = test system: rat 90K tumor-associated immunostimulator; test: Northern analysis of 90K tumor-associated immunostimulator RNA in FRTL-5 cells; assay type: cell-based; details: 5 Tg nucleic acid or 100 U/ml KIFN, Northern after 48 hours
Source text: 12: 19-33 (1998)). Filters were sequentially hybridized with the rat 90K, MHC Class I, MHC Class II, and GAPDH probes. […] The glyceraldehyde phosphate dehydrogenase (GAPDH) probe was cut from a pTRI-GAPDH-Rat template (Ambion, Tex.).

[2] = test system: MHC Class I, MHC Class II; test: Northern analysis of MHC Class I and Class II RNA after infection or transfection of FRTL-5 cells; details: 5 Tg nucleic acid transfected (Lipofectamine Plus), HSV-2 infection or KIFN, Northern 48 hours after treatment

B1: KIFN: K-interferon (gamma interferon, character lost), rat recombinant, 100 U/ml (protein, UniProt P01581 23-156, looked up)
Interferon gamma: QGTLIESLESLKNYFNSSSMDAMEGKSLLLDIWRNWQKDGNTKILESQIISFYLRLFEVLKDNQAISNNISVIESHLITNFFSNSKAKKDAFMSIAKFEVNNPQIQHKAVNELIRVIHQLSPESSLRKRKRSRC
- binding of p50/p65 and p50 homodimer to consensus NF-PB oligonucleotide binding site (NF-PB): significantly lesser level
- 90K RNA levels [1]: weaker
- MHC RNA levels / MHC expression (Class I and Class II) [2]: increases Class II more than Class I levels
